Molecular target: C22-pT peptide (HIV-1 gp41 MPER residues 662-683 with a C-terminal GCN4-pT isoleucine-zipper motif) (HIV-1)
Assay: AUC

C22-pT peptide (HIV-1 gp41 MPER residues 662-683 with a C-terminal GCN4-pT isoleucine-zipper motif)
stoichiometry N: 3
